The target of data set [1] is T1, Sdh2 (trimeric diheme succinate:menaquinone oxidoreductase, complex II) (Mycolicibacterium smegmatis, UniProt A0QT08+A0QT09+A0QT10).
T1 construct: gene sdhA; SdhD with C-terminal 10xHis tag (pVV16) expressed in M. smegmatis; digitonin-solubilised, Ni-NTA and gel filtration; trimer of SdhABCDF; SdhF 3 kDa; with Succinate dehydrogenase iron-sulfur subunit; Succinate dehydrogenase membrane-anchor subunit SdhF
Briefly: cryo-EM structure, […] Å. The format is binding. The conditions noted are these: co-purified; SdhA subunit.

Data set [2] deals with Mycobacterium smegmatis succinate dehydrogenase Sdh2 (trimer of SdhA-SdhB-SdhC-SdhD-SdhF protomers) (M. smegmatis) (UniProt A0QT09). Briefly: cryo-EM structure; digitonin-solubilised Sdh2 complex co-purified from M. smegmatis membranes, 5 mg/mL, 20 mM MOPS pH 7.4, 100 mM NaCl, 0.1% digitonin; 2.8 Å.
Data set [3] concerns the molecule itself. The description is as above.

Regarding `Cc1cc2nc3c(=O)[nH]c(=O)nc-3n(C[C@H](O)[C@H](O)[C@H](O)COP(=O)(O)OP(=O)(O)OC[C@H]3O[C@@H](n4cnc5c(N)ncnc54)[C@H](O)[C@@H]3O)c2cc1C` [FAD], in data set [1], the “cryo-EM structure, 2.8 Å” value was “All the prosthetic groups (FAD, [2Fe-2S], [4Fe-4S], [3Fe-4S], and two b-type heme groups)”. The molecule “Mycobacterium smegmatis succinate dehydrogenase Sdh2 (trimer of SdhA-SdhB-SdhC-SdhD-SdhF protomers) (from UniProt A0QT09 1-156) (complex)” showed a stoichiometry N in data set [2] of 3.

B1: SdhD subunit of M. smegmatis Sdh2 (membrane-anchored protein) with C-terminal 10x His tag (natural protein)
chain: MSAPGAGESRLGRPAPVMEREHDRPAALDHPRAPRKPRGIPYFEKYAWLFMRFSGIALVFLALGHLFIMLMWQDGVYRIDFNYVAERWASPFWQIWDMALLWLAMIHGANGMRTIIGDYARKNVTKFWLNSLLLLATGFTLVLGSYVLVTFDANIS
notes: SdhD (Sdh2D), membrane-anchor subunit of M. smegmatis Sdh2 with three transmembrane helices (IV-VI), gene MSMEG_1671; also called Sdh2D; subunit D; source: M. smegmatis mc2 51, expressed from pVV16; digitonin extract of membranes, purified with the complex (Ni-NTA, Superdex 200); not shown: His10, C-terminal, kept
With B1, the binding result in data set [3] is recorded as “binds”.
